Patent US20160068592A1 (SEOUL NATIONAL UNIVERSITY R AND DB FOUNDATION, published 2016)

What was measured:
[1] = target: T1, MG4 domain mutant d332-348 Fc fusion protein (human, UniProt P01031 367-469); test: immunoblot after SDS-PAGE
T1 construct: not shown: hinge region and CH2-CH3 domain of human IgG1
Excerpt: (§1) MG4 domain of the beta chain and five mutants from which the MG4 domain is sequentially removed from N-terminus of the MG4 domain were cloned. The primers were designed to add SfiI restriction sites at both the 5′ and 3′ ends (Table 13). The amplified PCR fragments were digested with SfiI and cloned into modified pCEP4 vector containing the hinge region and CH2-CH3 domain of human IgG1 at the 3′ region of the cloning site. These clones were transfected and Fc fusion proteins were purified as described in Example 5. The purified Fc fusion proteins were subjected to SDS-PAGE, and immunoblotting was performed as described above.

[2] = target: T2, MG4 domain mutant d332-378 Fc fusion protein (human, UniProt P01031 397-469); test: immunoblot after SDS-PAGE
T2 construct: not shown: hinge region and CH2-CH3 domain of human IgG1
Excerpt: as §1

[3] = target: T3, MG4 domain mutant d332-396 Fc fusion protein (human, UniProt P01031 415-469); test: immunoblot after SDS-PAGE
T3 construct: not shown: hinge region and CH2-CH3 domain of human IgG1
Excerpt: as §1

[4] = target: T4, beta chain of human C5 protein (human, UniProt P01031 19-673); test: immunoblot, SDS-PAGE under reducing condition
T4 construct: Seen as the beta-chain band of C5 on SDS-PAGE under reducing condition; also called C5 beta-chain

[5] = target: T5, Fc fusion protein having an MG4 domain (human, UniProt P01031 350-469); test: immunoblot of beta-chain domain Fc fusion proteins
T5 construct: Amplified with MG4_F/MG4_R and cloned by SfiI into modified pCEP4; also called hMG4; MG4 domain of the C5 beta chain as Fc fusion protein; not shown: hinge region and CH2-CH3 domain of human IgG1, 3' of the cloning site

binding result [1]: no binding
binding result [2]: no binding
binding result [3]: no binding
binding result [4]: binds
binding result [5]: binds
B1: HRA-06-H2-1 (antibody, human IgG2, kappa, V domains shown)
VH: EVQLVESGGGLVQPGGSLRLSCAASGFSFSGRYWIQWVRQAPGKGLEWVASVWPGITGDTNYANWAKGRFTISRDDSKNTLYLQMNSLRAEDTAVYYCAREPVAWGGGLDLWGQGTLVTVSS
VL: DIQMTQSPSSLSASVGDRVTITCQASQSINNQLSWYQQKPGKAPKLLIYYASTLASGVPSRFSGSGSGTDFTLTISSLQPEDFATYYCQGSYYSGGWDYGFGQGTKVEIKR
notes: also called anti-complement C5 antibody HRA-06-H2-1; C5 Antibody (HRA-06-H2-1)
